According to patent US20250051455A1 (Hoffmann-La Roche, published 2025):
Changes are numbered by the printed parent chain.

B1: HLA-G-0039 (antibody, V domains shown)
VH: EVQLLESGGGLVQPGGSLRLSCAASGFTFSSYAMNWVRQAPGKGLEWVSVISGSGVSTYYADSVKGRFTISRDNSRNTLSLQMNSLRAEDTAVYYCAKDGSYNYGYGDYFDYWGQGTLVTVSS
VL: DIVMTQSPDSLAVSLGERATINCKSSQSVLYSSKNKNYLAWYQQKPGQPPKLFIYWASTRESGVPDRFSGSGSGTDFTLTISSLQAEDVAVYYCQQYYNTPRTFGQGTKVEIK
notes: Human antibody from humanized OmniRat (OMT) rats
B2: HLA-G-0041 (antibody, V domains shown)
VH: B1 VH with S31T, A33G, N35S, S54G, R76K, S80Y, S85R
VL: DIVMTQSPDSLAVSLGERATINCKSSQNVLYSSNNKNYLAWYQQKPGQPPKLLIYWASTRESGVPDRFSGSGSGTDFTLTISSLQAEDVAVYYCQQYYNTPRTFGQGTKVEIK
notes: as for B1
B3: HLA-G-0031 (antibody, V domains shown)
VH: QVKLMQSGAALVKPGTSVKMSCNASGYTFTDYWVSWVKQSHGKRLEWVGEISPNSGASNFDENFKDKATLTVDKSTSTAYMELSRLTSEDSAIYYCTRSSHGSFRWFAYWGQGTLVTVSS
VL: AIVLNQSPSSIVASQGEKVTITCRASSSVSSNHLHWYQQKPGAFPKFVIYSTSQRASGIPSRFSGSGSGTSYSFTISRVEAEDVATYYCQQGSSNPYTFGAGTKLELK
notes: Rat monoclonal antibody obtained from CD rats
B4: HLA-G-0090 (antibody, V domains shown)
VH: QVQLQQSGPGLLKPSQTLSLTCAISGDSVSSNRAAWNWIRQSPSRGLEWLGRTYYRSKWYNDYAVSVQGRITLIPDTSKNQFSLRLNSVTPEDTAVYYCASVRAVAPFDYWGQGVLVTVSS
VL: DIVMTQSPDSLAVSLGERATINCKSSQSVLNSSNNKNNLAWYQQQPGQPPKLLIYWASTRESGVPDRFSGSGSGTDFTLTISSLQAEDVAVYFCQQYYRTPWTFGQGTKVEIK
notes: as for B1

What was measured:
[1] = target: T1, modified human HLA-G β2M MHC class I complex (HLA-G specific amino acids replaced by HLA-A consensus amino … (human)); assay: ELISA, biotinylated degrafted HLA-G on streptavidin plate
T1 construct: Counter antigen: single-chain fusion of peptide, beta-2 microglobulin and HLA-G in which 14 HLA-G unique surface positions were mutated to an HLA-A consensus; also called degrafted HLA-G; HLA-G-0007
Method: Streptavidin coated plates (Nunc, MicroCoat #11974998001) were coated with 25 μl/well biotinylated human degrafted HLA-G at a concentration of 250 ng/ml and incubated at 4° C. overnight. After washing (3×90 μl/well with PBST-buffer) 25 μl anti-HLA-G samples (1:3 dilution in OSEP buffer) or rat serum (1:600 dilution in OSEP) were added and incubated 1 h at RT. After washing (3×90 μl/well with PBST-buffer) 25 μl/well of a mixture of goat-anti-rat IgG1-POD (Bethyl #A110-106P), goat-anti-rat IgG2a-POD (Bethyl #A110-109P) and goat-anti-rat IgG2b-POD (Bethyl #A110-111P) 1:10000 in OSEP was added and incubated at RT for 1 h on shaker. After washing (6×90 μl/well with PBST-buffer) 25 μl/well TMB substrate (Roche, 11835033001) was added and incubated until OD 2-3. Measurement took place on a Tecan Safire 2 instrument at 370/492 nm.
The above table summarizes the binding of different rat anti-human HLA-G monoclonal antibodies, derived from wt protein IMS both of wt as well as OMT rats. Shown are the relative EC50 values [ng/ml] and maximal OD of the respective binding to rec. wt monomeric HLA-G protein or the socalled gegrafted HLA-G (HLA-A consensus sequence on HLA-G backbone) protein as assessed by ELISA. The ELISA was set up by coating the biotinylated wt HLA-G or consensus antigen to strepdavidin plates. After incubation and washing steps, the respective antibodies were bound in a concentration range from 10-0 μg in 1:2 dilution steps. Detection of bound antibodies was carried out by anti-Fc-antibody-POD conjugates. EC50 values were determined from the resulting binding curves at the antibody concentrations generating the half-maximal signal.

[2] = target: T2, recombinant soluble human HLA-G β2M MHC class I complex, monomer (human); assay: blocking ELISA on biotinylated wt HLA-G; competitor ILT-4
T2 construct: His tagged; biotinylated where coated on streptavidin plates, non-biotinylated in SPR; also called HLA-G-0003; wt HLA-G (monomer)

[3] = target: T2, recombinant soluble human HLA-G β2M MHC …; assay: competition ELISA, one antibody concentration; competitor coated ILT4-Fc
Method: (§1) The ELISA was set up by coating the Fc tagged ILT2 and ILT4 respectively to Maxisorp microtiter plates. After incubation and washing steps, the respective antibodies were added at a concentration of 100 nM. Soluble His tagged monomeric, dimeric or trimeric HLA-G was added to the wells. After incubation and washing steps, detection of bound receptor was carried out by anti-His-antibody-POD conjugates.
(§2) The above tables summarize the blocking of interaction between rec. HLA-G proteins (monomer and oligomers) to its receptors ILT2 and ILT4 by the described HLAG antibodies at a concentration of 110 nM (*HLAG-0090 was tested at a concentration of 44 nM) as assessed by ELISA. Shown are the % inhibitions of the HLA-G/receptor interaction (for ILT2 and ILT4). The less pronounced ILT4 inhibition depends on the major β2M dependent interaction of this receptor.

[4] = target: T3, recombinant soluble human HLA-G β2M MHC class I complex, dimer (human); assay: as above
T3 construct: Non-biotinylated; also called HLA-G Dimer; dimeric HLA-G
Method: as §1, §2

[5] = target: T4, recombinant soluble human HLA-G β2M MHC class I complex, trimer (human); assay: as above
T4 construct: Non-biotinylated; also called HLA-G Trimer; trimeric HLA-G
Method: as §1, §2

[6] = target: T5, human HLA-G expressed on cells (JEG3 natural; SKOV3 HLA-G+ and PA-TU-8902 HLA-G+ transfectants) (human); assay: flow cytometry, JEG3 cells pre-incubated with antibody (40 µg/ml final); competitor ILT2-Fc chimera
T5 construct: On cells HLA-G stands in an MHC class I complex with beta-2 microglobulin and peptide; these are not specified; also called cell surface HLA-G; HLAG on JEG-3 cells
Method: For analysis, JEG3 cells (ATCC HTB36) were stained with ILT2-Fc fusion proteins (control=no inhibition) with or without pre-incubation with different anti-HLA-G antibodies. For the pre-incubation with anti-HLA-G antibodies 25 μl/well of the cell suspension was transferred into a polypropylene 96-Well V-bottom plate and prechilled in the at 4° C. for 10 min. Anti HLA-G antibodies or reference antibodies (G233, MEM-G/9 or 87G) were diluted in staining buffer to a 2-fold concentration of 80 μg/ml and 25 μl/well of the antibody solution was added to the prepared cells and incubated for 1 h at 5° C. Cells were washed twice with 200 μl/well staining buffer with centrifugation at 300 g for 3 min and finally resuspended in 25 μl/well staining buffer.
The detection of human ILT2-Fc Chimera protein (RD #2017-T2-050) to a) JEG3 cells pre-incubated anti HLA-G mAb or b) untreated JEG3 cells as reference was determined as follows: Briefly, the ILT2-Fc or control human IgG (Jackson-Immuno-Research #009-000-003) were diluted in staining buffer to a 2-fold concentration of 20 μg/ml (ILT2) and 25 μl/well of the ILT2-Fc protein solution was added to the prepared cells and incubated for 2 h at 5° C. Cells were again washed twice with 200 μl/well staining buffer the human ILT2-Fcprotein was detected with fluorescent labeled anti human IgG Fc-gamma specific antibody (F(ab′)₂ Fragment Goat Anti-Human IgG, Fcγ fragment specific-FITC, Jackson-Immuno-Research #109-096-008) at a dilution of 10 μg/ml in staining buffer. Cell pellets were resuspended in 50 μl/well detection antibody. After a 1-hour incubation at 5° C. cells were washed twice with staining buffer, resuspended in 70 μl and measured at a FACS Canto II to determine ILT2 binding to JEG 3 cells.

[7] = target: T5, human HLA-G expressed on cells (JEG3 …); assay: cell-based or functional assay

Binder | Max. OD [1] [OD] | % inh. ILT4 (3 µg/ml antibody) [2] [%] | % inhibition of ILT4 binding [3] [%] | % inhibition of ILT4 binding [4] [%] | % inhibition of ILT4 binding [5] [%] | Inhibition of ILT2 binding to Jeg3 cells [6] [%] | % TNF release (restoration) by monocytes (different donor) co-cultured with JEG-3 wt cells, LPS; antibody 0.16 µg/ml [7] [%] | % TNF release (restoration) by monocytes (different donor) co-cultured with JEG-3 wt cells, LPS; antibody 0.63 µg/ml [7] [%] | % TNF release (restoration) by monocytes (different donor) co-cultured with JEG-3 wt cells, LPS; antibody 2.5 µg/ml [7] [%] | % TNF release (restoration) by monocytes (different donor) co-cultured with JEG-3 wt cells, LPS; antibody 10 µg/ml [7] [%]
B1 | 0.13 | 23.9 | -224 | -105 | -43 | -72.9 | – | – | – | –
B2 | 0.15 | 18.4 | -184 | -113 | -39 | -76.7 | 44 | 66 | 59 | 40
B3 | 0.13 | 39.8 | 17 | 54 | 68 | 95.1 | 14 | 44 | 67 | 74
B4 | 0.2 | – | – | – | – | 91.8 | 198 | 219 | 233 | 221
